This series deals with the molecule itself. Put plainly: co-sedimentation.

B1: apoA-IV 1‒70/K58E variant (domain or fragment, human)
chain: GPEVSADQVATVMWDYFSQLSNNAKEAVEHLQKSELTQQLNALFQDKLGEVNTYAGDLQEKLVPFATELHER
For the protein B1, the binding result is recorded as “binds”.

The values above are taken from publication PMC12003865 (Scientific Reports, 2025).
